Values joined by “and” are separate entries in the source; they are usually repeats but may differ in a detail not shown here. Equal entries are not always repeated.
B1: Cv2.1169 IgG1 (antibody, V domains shown)
VH: QVQLVQSGPEVKKPGTSVKVSCKASGFTFTTSAVQWVRQARGQRLEWIGWIVVGSGNTNYAQKFQERVTITRDMSTTTAYMELSSLRSEDTAVYYCAAPYCSGGTCLDGFDIWGQGTMVTVSS
VL: not shown
B2: Cv2.3194 IgG1 (antibody, V domains shown)
VH: EVQLVESGGGLIQPGGSLRLSCAASGITVTSNYMSWVRQAPGKGLEWVSVIYPGGSTFYADSVKGRFTISRDNSKNTLYLQMNSLRAEDTAVYYCARDLVVYGMDVWGQGTTVTVSS
VL: EIVLTQSPGTLSLSPGERATLSCRASQSVSSSYLAWYQQKPGQAPRLLIYGASSRATGIPGRFSGSGSGTDFTLTISRLEPEDFAIYYCQQGVTFGGGTKVEIKR

What was measured:
[1] = biological target: SARS-CoV-2 Delta (δ, B.1.617.2) spike on virus (SARS-CoV-2); experiment: cell-based or functional assay
[2] = biological target: SARS-CoV-2 Omicron BA.1 spike on virus (SARS-CoV-2); experiment: cell-based or functional assay

Row | Binder | IC50 (S-融合测定) [1] [µg/mL] | IC50 (S-融合测定) [2] | IC50 (中和) [2] [µg/mL]
1 | B1 | 0.00446 | 0.253 µg/mL and 0.212 µg/mL | ~0.25
2 | B2 | – | 0.0242 µg/mL | –
